Broadly, the Kd is the constant that tells how readily two partners part at equilibrium. Higher therefore signals lower affinity. Broadly, the koff is the rate constant with which the complex falls apart. Lower therefore signals a long-lived complex. The EC50 is the concentration giving half of the maximal effect. A lower EC50 goes with an effect from little substance.

The values that follow come from patent US20160207996A1 (ARGEN X N V, published 2016).

Positions count from the first letter of the chain named.

The target in experiment [1] is T1, hNav1.7-loopA3-llama Fc fusion (human).
T1 construct: also called hNav1.7-loopA3-llFc; loopA3-llamaFc chimera
T1 chain: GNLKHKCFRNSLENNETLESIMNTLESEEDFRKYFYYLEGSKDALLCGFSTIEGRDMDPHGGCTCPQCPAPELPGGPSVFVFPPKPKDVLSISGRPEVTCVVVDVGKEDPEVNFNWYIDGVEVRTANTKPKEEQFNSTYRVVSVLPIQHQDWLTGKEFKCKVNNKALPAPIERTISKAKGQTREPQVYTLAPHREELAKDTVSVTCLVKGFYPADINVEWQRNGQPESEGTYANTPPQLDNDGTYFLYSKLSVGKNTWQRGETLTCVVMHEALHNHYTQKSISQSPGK
Kind of experiment: Biacore SPR, antigen on CM5 chip, mAb in flow. On the procedure:
(§1) In a further experiment, affinity of the loopA3-binding mAbs was determined using Biacore Surface Plasmon Resonance (SPR) analysis.
Background: In SPR one partner is held on a chip, and binding of the other changes the refractive index at the surface.

Experiment [2] concerns the target T2, GST-tagged hNav1.7-loopA3 (human, UniProt Q15858 269-339).
T2 construct: monomeric GST-tagged peptide; also called hNav1.7-loopA3-GST; Nav1.7-loopA3-GST; not shown: GST tag
Kind of experiment: Biacore SPR, antigen on CM5 chip, mAb in flow. On the procedure: as §1

In experiment [3] the target is T1, hNav1.7-loopA3-llama Fc fusion. Kind of experiment: ELISA, coated hNav1.7-loopA3-llama Fc, mAb titrated. On the procedure: (§2) mAbs originating from the loopA3-llama Fc immunization were assayed for their affinity for hNav1.7-loopA3. Therefore, a Maxisorp plate was coated with 10 ng/well of loopA3-llamaFc chimera and incubated overnight at 4° C. The next day, the plate was blocked with PBS+1% casein for 2 hours at RT. Subsequently a concentration gradient of antibodies was applied (range 0.25 pM-66 nM) for another hour. Antibody binding to loopA3 was detected using a HRP-conjugated anti-human Fc antibody (Abcam, Ab7499) (incubation 1 hour at RT, dilution 1/5000 in PBS+0.1% casein), followed by TMB addition and OD620 nm measurement. EC50 values were determined using GraphPad Prism software. For comparison purposes a known hNav1.7-loopA3 binding monoclonal antibody, UCB_932 (US2011/0135662), was tested.
For orientation: In an ELISA, binding on a coated surface is turned into a signal by an enzyme label.

Experiment [4] addresses human Nav1.7 (full length) (human) (UniProt Q15858). Kind of experiment: cell-based or functional assay.
Experiment [5] concerns the target T3, hNav1.7-loopB1-C1-D1-llama Fc (human).
T3 construct: whole entry: loops B1, C1, D1 joined by linkers, llama Fc; also called hNav1.7-loopB1-C1-D1-llfc
T3 chain: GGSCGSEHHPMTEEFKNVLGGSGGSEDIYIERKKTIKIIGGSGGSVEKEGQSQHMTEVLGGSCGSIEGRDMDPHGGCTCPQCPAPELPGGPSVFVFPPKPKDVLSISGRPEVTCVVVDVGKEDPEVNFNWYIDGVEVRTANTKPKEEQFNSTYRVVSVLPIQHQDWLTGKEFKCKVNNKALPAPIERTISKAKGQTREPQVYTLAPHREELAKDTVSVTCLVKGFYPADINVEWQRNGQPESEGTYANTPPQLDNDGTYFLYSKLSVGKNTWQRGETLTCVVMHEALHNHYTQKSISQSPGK
Briefly: ELISA, coated loop-B1-C1-D1-llama Fc 20 ng/well, mAb titrated. On the procedure:
as §2
In a next experiment, the binding affinity of the loop-specific mAbs was determined and compared to reference mAbs as described in US2011/0135662 (for loop A3: UCB_932, for loopB1-C1-D1: UCB_983, for loopC3: UCB_1066; US2011/0135662). Affinities were determined using an ELISA with a loop-coating of 10 ng/well (loopA3-llama Fc), 20 ng/well (loop-B1-C1-D1-llama Fc) or 50 ng/well (loopC3-llama Fc). The remainder of the experimental setup was identical to abovementioned binding ELISAs. Most of the mAbs show pM affinity for the respective hNav1.7 extracellular loop they are binding. […] The EC₅₀ for the reference mAbs could not be determined (nd) from the ELISA data available because the binding was too weak.

The target in experiment [6] is T4, hNav1.5-B1-C1-D1-llFc (human).
T4 construct: also called Nav1.5 extracellular loop B1-C1-D1 llamaFc chimera
T4 chain: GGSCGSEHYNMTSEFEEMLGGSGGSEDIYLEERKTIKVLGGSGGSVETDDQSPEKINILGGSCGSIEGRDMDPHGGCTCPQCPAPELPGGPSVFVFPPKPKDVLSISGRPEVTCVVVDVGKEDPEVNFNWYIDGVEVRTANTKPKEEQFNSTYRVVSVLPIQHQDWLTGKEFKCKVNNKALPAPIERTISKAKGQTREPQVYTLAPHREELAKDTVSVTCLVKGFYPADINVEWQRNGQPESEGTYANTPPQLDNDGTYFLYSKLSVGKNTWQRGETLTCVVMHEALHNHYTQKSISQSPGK
Kind of experiment: binding ELISA; the panel prints no target, by paragraph 288 and paragraph 555 the coated hNav1.5 loop B1-C1-D1-llama Fc. From the text:
The therapeutic potency of an anti-hNav1.7 antibody will highly depend on the lack of binding to other Nay family members. Of particular interest is hNav1.5, which is expressed on cardiac muscle cells. As such, cross-reactive binding of hNav1.7 antibodies to hNav1.5 could lead to heart failure. To assay the specificity of the mAbs derived from DNA immunization for hNav1.7, the corresponding loopA3 and loopB1-C1-D1 sequences of hNav1.5 were cloned as llamaFc chimera and cross-reactivity was determined using a binding ELISA (FIG. 8). All clones, except clone 9A6 and 9H4, show no cross-reactivity to hNav1.5. In addition, cross reactivity for hNav1.2 was tested for the loopA3-binding clones 8A7 and 8B6 using hNav1.2 and hNav1.7 derived monomeric, GST-tagged loopA3 peptides (Abnova, H00006326-Q01 (hNav1.2) and H00006335-Q01 (hNav1.7)). Again, no cross-reactive binding was observed.

T2 sequence (Q15858 269-339 limits assumed): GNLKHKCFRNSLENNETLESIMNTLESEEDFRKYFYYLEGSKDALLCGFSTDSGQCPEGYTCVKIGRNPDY

B1: 4F7 (antibody, human IgG1, V domains shown)
VH: QVQLQESGPGLVKPSQTLSLTCTVSGGSITTSFYAWSWIRQPPGKGLEWMGVIAYDGRTFYSPSLKSRTHISRDTSKNQFSLQLSSVTPEDTAVYYCARGGVVAWSYDYWGQGTQVTVSS
VL: SYELTQSPSVSVALRQTAKITCGGNDIGSKSTQWYQQKAGQAPVLVIYADSRRPSGIPERFSGSNSGNTATLTISGAQAEDEADYYCQVWDSRADAAVFGGGTHLTVLG
Regarding B1, the equilibrium dissociation constant (Kd) is 0.084 nM in experiment [1] and 0.0825 nM in experiment [2]. The koff in experiment [1] amounted to 2.68e-05 s⁻¹; in experiment [2] it was 1.84e-05 s⁻¹. In experiment [3], this molecule had a concentration for a half-maximal effect (EC50) of 0.057 nM.

B2: 6H8 (antibody, human IgG1, V domains shown)
VH: EVQLVESGGGLVQPGGTLRLSCAASGFTFSNYWMHWVRQAPGKGLEWVSVIDRGGGGTRYADSVKGRFTISRDNAKNTLYLRMNSLKPEDTALYYCTRDRNGEYDYWGRGTQVTVSS
VL: DIQMTQSPSSVTASAGEKVTINCKSSQSVLYSSNQKNYLAWYQQRLGQSPRLLIYWASTRESGVPDRFSGSGSTTDFTLTINNFQPEDAAVYYCQQGYSAPLTFGQGTKVELK
With B2, the Kd came to 0.00181 nM in experiment [1] and 0.000609 nM in experiment [2]. The figures for the koff in experiment [1] and in experiment [2] were 3.58e-06 s⁻¹ and 6.9e-07 s⁻¹, respectively. This molecule also displayed a 50% effective concentration (EC50) in experiment [3] of 0.066 nM.

B3: 4F6 (antibody, human IgG1, V domains shown)
VH: QLQLVESGGGLVQPGGSLRLSCAASGFTFDDYAMSWVRQAPGKGLEWVSAISWNGGSTYYAESMKGRFTISRDNAKNTLYLQMNSLKSKDTAVYYCARRRYGLGSEYDYWGQGTQVTVSS
VL: HSAVTQPSAVSVSLGQTARITCQGTNLRSSYVHWYQQMPGQAPVLVIYRDSERPSGIPERFSGSSSGGTATLAISGAQAEDEADYYCQSAHRSESAVFGGGTHLTVLG
In the case of B3, in experiment [1], the Kd amounted to 5.1 nM and the koff stood at 0.00422 s⁻¹. In experiment [2], this molecule gave a Kd of 3.35 nM and a koff of 0.00254 s⁻¹. The same molecule had an EC50 in experiment [3] of 0.874 nM.

B4: 4E8 (antibody, human IgG1, V domains shown)
VH: B3 VH with Q1E, L2V, V5Q
VL: NFMLTQPSAVSVSLGQTARITCQGSSFGSSYAHWYQQMPGQAPILVIYRDSERPSGIPDRFSGSNSGGTATLTISGAQAEDEADYYCQSGSSSGNAHAVFGGGTHLTVLG
For the molecule B4, in experiment [1], binding was put at a Kd of 4.28 nM and the koff turned out to be 0.000422 s⁻¹. In experiment [2], this molecule yielded an equilibrium dissociation constant (Kd) of 45.2 nM and a koff of 0.00063 s⁻¹. In experiment [3], this molecule had an EC50 of 0.129 nM.

B5: 4H6 (antibody, human IgG1, V domains shown)
VH: QVQLQESGPGLVKPSQTLSLTCTVSGGSITNYGWSWIRQPPGKGLEWMGVIAYDGSTYYSPSLKSRTSISRDTSKNQFSLQLSSVTPEDTAVYYCASAMVTTSSPWVKTFGAWGQGTQVTVSS
VL: QAGLTQPPSVSGSPGKTVTISCAGTSSDVGYGNYVSWYQQLPGMAPKLLLYSVNKRASGIADRFSGSKSGNTASLTISGLQSEDEADYYCGCYDSSLSTPVFGGGTKLTVLG
For the molecule B5, in experiment [1], the affinity, expressed as Kd, was 0.12 nM and the off-rate constant (koff) was 4.48e-05 s⁻¹. In addition, in experiment [2], binding was characterised by a dissociation constant (Kd) of 0.0505 nM and the koff stood at 1.54e-05 s⁻¹. In experiment [3], this molecule displayed an EC50 of 0.067 nM.

B6: 3F11 (antibody, human IgG1, V domains shown)
VH: QVQLVESGGGLVQPGGSLRLSCAASGFTFSSYWMYWVRQAPGKGLEWVSAINTGGGSTYYADSVKGRFTISRDNAKNTLYLQMNSLKPEDTALYYCARGPGYSGSYIEGWAYWGQGTQVTVSS
VL: DIVMTQSPTSVTASVGEKVTINCKSSQSVVSGSNQKSYLNWYQQRPGQSPRLLIYHASTQESGIPDRFSGSGSTTDFTLTISSVQPEDAAVYYCQQAYNNPYSFGSGTRLEIK
On to B6, for which, in experiment [1], the Kd stood at 0.0253 nM and the dissociation rate constant (koff) stood at 1.56e-05 s⁻¹. In experiment [2], this molecule had a dissociation constant Kd of 0.0374 nM and a dissociation rate constant (koff) of 1.77e-05 s⁻¹. Also, the 50% effective concentration (EC50) in experiment [3] turned out to be 0.072 nM.

B7: 2F12 (antibody, human IgG1, V domains shown)
VH: B6 VH with S105K
VL: B6 VL with T9R, T20F, G32E, K36R, H56Y, I64L, N99S, N100A
As to B7, in experiment [1], binding was put at a Kd of 0.0241 nM and the koff turned out to be 1.92e-05 s⁻¹. Moreover, in experiment [2], the equilibrium dissociation constant (Kd) is 0.0169 nM and the koff worked out at 1.08e-05 s⁻¹. In experiment [3], this molecule yielded an EC50 of 0.057 nM.

B8: 3E1 (antibody, human IgG1, V domains shown)
VH: B6 VH with Q1E, L4V, V5Q, S105K
VL: B6 VL with T9S, N34K, H56Y, N99S, N100A
For the molecule B8, the dissociation constant (Kd) in experiment [1] amounted to 0.2 nM; in experiment [2], 0.216 nM. For the same molecule, the off-rate (koff) in experiment [1] is 0.00041 s⁻¹; in experiment [2], 0.000356 s⁻¹. In experiment [3], this molecule gave a 50% effective concentration (EC50) of 0.063 nM.

B9: 9A11 (antibody, human IgG1, V domains shown)
VH: EVQLVQPGAEVRRPGAAVKVSCKASGFALISSYIDWVRQAPGQGLEWMGRIDPEDGGTSYAQKFQGRVTVTVDTATSTAYVELSSLRSDDTGVYFCMVGDSGYWGQGTQVTVSS
VL: ATMLTQSPGSLSVVPGESASISCKASQSLVHTDGKTYLSWLLQKPGQSPQRLIYQVSTRGSGVPDRVTGSGSGTDFTLKISGVKAEDAGVYYCAQTTYYPPTFGQGTKVELK
In experiment [4], B9 yielded a % inhibition of inward current following P02 voltage protocol, 10 µg/ml of 16%; a % inhibition of inward current following P02 voltage protocol, 25 µg/ml of 49.4%; a % inhibition of inward current following P02 voltage protocol, 100 µg/ml of 62.3%. The molecule also showed an EC50 in experiment [5] of 0.091 nM. Moreover, in experiment [6], the binding result is listed as “no binding (tested: about 130 nM)”.
